Here are results for 25 sequences from patent publication US20030054360.

Assay in all cases: filter
For series [1], the target named is Hepatocyte Growth Factor (HGF) (UniProt P14210+P14210). The settings on record: 5-BrdU replaces T; apparent photocrosslink KD; plateau 73%.
For series [2], the target named is CTLA-4 Fc (UniProt P16410). The settings on record: 5-BrdU replaces T; apparent photocrosslink KD; plateau 7%.
Series [3] addresses T1, Endostatin (UniProt P39060).
T1 sequence: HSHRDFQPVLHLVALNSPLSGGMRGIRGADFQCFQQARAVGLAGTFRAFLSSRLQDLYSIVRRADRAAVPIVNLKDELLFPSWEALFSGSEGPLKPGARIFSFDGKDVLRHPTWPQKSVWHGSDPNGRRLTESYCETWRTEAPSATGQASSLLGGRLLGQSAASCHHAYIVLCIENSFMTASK
Conditions: 5-BrdU replaces T; apparent photocrosslink KD; plateau 75%.

Series [4] concerns the target T2, Kininogen (UniProt P01042).
T2 sequence: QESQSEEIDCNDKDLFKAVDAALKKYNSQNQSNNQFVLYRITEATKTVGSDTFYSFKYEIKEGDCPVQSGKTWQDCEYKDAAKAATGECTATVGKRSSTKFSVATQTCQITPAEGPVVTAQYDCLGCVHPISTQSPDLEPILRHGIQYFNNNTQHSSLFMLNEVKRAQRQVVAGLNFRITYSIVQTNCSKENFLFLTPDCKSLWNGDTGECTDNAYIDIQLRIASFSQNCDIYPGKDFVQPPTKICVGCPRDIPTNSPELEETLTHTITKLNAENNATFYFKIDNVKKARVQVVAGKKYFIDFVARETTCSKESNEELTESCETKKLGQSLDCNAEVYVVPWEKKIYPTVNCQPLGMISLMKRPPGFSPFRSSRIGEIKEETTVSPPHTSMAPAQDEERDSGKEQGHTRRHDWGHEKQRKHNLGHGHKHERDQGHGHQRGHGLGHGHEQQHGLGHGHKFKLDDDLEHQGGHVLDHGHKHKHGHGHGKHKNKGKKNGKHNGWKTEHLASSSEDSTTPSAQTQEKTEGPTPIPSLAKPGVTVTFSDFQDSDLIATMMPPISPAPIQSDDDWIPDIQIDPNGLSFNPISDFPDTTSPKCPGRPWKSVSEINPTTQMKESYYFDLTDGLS
The settings on record: 5-BrdU replaces T; apparent photocrosslink KD; plateau 64%.

Series [5] addresses T3, human neutrophil elastase (hNE) (Homo sapiens) (UniProt P08246).
T3 sequence: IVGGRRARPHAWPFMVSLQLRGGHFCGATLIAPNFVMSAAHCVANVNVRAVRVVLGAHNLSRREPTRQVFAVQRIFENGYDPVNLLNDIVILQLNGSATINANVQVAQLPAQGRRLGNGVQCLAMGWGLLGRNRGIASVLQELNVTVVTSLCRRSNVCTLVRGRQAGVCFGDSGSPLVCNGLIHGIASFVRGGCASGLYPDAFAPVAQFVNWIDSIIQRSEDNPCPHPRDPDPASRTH
The settings on record: 5-BrdU replaces T.

Series [6] addresses alpha-thrombin (Homo sapiens) (UniProt P00734+P00734). The settings on record: 5-BrdU replaces T, apparent photocrosslink KD.
The target of series [7] is T4, Interleukin-7 (UniProt P13232).
T4 sequence: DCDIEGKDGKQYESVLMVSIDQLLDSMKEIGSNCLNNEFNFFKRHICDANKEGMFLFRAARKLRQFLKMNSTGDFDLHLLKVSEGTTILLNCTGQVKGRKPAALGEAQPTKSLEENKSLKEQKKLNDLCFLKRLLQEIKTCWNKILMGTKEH
The settings on record: 5-BrdU replaces T; apparent photocrosslink KD; plateau 50%.

Series [8] has as its target IGFBP-3 (UniProt P17936). The settings on record: 5-BrdU replaces T; apparent photocrosslink KD; plateau 52%.
In series [9] the target is T5, Coagulation Factor XII (UniProt P00748).
T5 sequence: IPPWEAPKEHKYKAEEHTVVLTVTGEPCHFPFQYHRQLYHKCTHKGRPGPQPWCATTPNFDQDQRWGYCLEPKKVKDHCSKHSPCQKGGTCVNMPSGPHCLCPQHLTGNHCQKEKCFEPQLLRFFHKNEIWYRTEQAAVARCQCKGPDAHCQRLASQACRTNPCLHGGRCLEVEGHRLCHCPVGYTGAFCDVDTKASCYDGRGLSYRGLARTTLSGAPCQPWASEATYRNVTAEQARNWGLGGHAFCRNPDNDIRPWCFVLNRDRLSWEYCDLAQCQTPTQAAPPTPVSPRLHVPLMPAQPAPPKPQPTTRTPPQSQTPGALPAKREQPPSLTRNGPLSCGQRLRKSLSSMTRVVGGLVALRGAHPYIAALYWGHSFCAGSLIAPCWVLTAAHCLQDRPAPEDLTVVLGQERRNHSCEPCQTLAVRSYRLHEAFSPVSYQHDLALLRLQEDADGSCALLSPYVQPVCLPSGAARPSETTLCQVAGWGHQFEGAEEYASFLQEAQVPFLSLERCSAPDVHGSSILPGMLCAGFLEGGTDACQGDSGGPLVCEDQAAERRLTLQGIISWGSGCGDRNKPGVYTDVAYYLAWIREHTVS
The settings on record: 5-BrdU replaces T; apparent photocrosslink KD; plateau 45%.

Series [10] has as its target T6, L-Selectin (Homo sapiens) (UniProt P14151).
T6 sequence: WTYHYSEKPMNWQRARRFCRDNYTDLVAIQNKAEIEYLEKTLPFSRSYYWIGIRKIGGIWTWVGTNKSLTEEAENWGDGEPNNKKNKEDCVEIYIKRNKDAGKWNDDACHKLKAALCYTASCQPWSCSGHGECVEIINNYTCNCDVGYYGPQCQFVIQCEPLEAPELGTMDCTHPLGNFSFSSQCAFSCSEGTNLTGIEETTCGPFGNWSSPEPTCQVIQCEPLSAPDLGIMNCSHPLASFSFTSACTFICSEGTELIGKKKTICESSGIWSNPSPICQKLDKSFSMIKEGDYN
Conditions: 5-BrdU replaces T; apparent photocrosslink KD; plateau 25%.

Series [11] addresses Coagulation Factor IX (UniProt P00740). Conditions: 5-BrdU replaces T; apparent photocrosslink KD; plateau 75%.
Series [12] deals with Serum Amyloid P (UniProt P02743). Conditions: 5-BrdU replaces T; apparent photocrosslink KD; plateau 55%.
Sequence of Serum Amyloid P (P02743 20-223): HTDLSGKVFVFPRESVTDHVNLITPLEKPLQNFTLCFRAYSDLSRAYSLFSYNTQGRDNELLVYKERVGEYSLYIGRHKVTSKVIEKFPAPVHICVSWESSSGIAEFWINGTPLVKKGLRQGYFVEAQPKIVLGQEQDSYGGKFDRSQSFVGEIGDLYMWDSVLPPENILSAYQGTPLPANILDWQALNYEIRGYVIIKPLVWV
The target in series [13] is Factor H (UniProt P08603). Conditions: 5-BrdU replaces T; apparent photocrosslink KD; plateau 65%; abstract prints Factor II.
Sequence of Factor H (P08603 19-1231): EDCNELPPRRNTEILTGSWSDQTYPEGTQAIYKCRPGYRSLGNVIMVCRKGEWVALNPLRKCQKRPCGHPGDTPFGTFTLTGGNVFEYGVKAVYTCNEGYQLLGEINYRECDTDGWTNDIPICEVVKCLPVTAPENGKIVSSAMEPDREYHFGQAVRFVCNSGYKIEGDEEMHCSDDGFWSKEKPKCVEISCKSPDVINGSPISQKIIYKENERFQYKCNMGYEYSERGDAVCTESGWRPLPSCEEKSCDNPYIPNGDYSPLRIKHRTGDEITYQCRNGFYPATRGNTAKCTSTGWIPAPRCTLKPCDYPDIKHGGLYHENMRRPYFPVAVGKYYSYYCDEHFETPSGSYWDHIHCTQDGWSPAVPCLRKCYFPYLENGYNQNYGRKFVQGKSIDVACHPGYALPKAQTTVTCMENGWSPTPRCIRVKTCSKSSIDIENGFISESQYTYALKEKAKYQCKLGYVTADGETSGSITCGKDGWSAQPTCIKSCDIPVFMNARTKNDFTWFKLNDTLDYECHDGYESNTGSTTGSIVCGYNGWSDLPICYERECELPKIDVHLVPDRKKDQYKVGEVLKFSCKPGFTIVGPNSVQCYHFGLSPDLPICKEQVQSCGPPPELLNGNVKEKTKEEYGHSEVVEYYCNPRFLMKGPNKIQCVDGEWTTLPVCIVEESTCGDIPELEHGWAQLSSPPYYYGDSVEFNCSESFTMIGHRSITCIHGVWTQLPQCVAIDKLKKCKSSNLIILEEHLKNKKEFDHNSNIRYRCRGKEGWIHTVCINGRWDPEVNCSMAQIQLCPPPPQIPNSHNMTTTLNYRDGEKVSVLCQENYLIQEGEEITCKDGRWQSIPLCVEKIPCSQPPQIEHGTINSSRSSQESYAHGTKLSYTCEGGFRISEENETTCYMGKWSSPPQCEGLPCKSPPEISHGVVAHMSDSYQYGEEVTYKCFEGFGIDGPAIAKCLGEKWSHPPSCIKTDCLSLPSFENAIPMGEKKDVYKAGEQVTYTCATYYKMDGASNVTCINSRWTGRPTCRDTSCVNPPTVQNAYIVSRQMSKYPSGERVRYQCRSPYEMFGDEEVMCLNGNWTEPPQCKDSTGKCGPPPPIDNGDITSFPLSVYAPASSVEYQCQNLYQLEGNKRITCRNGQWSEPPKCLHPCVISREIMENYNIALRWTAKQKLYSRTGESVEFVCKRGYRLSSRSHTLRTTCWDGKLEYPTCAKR
The target of series [14] is Thrombopoietin (Tpo) (UniProt P40225). Conditions: 5-BrdU replaces T; apparent photocrosslink KD; plateau 50%.
Sequence of Thrombopoietin (Tpo) (P40225 22-353): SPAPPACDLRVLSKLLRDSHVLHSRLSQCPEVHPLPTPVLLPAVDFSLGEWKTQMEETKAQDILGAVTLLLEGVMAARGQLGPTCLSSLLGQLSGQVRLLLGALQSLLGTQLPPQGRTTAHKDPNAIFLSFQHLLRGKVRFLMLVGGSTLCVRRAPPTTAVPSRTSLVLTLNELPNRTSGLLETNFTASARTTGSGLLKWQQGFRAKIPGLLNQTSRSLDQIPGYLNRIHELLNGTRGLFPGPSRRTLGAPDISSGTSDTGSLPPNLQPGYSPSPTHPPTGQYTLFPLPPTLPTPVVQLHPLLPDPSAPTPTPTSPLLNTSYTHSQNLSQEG
Series [15] concerns Collagen. The settings on record: 5-BrdU replaces T; apparent photocrosslink KD; plateau 25%.
Series [16] deals with Transforming Growth Factor beta1 (TGF-beta1) (UniProt P01137). Conditions: 5-BrdU replaces T, apparent photocrosslink KD.
Sequence of Transforming Growth Factor beta1 (TGF-beta1) (P01137 279-390): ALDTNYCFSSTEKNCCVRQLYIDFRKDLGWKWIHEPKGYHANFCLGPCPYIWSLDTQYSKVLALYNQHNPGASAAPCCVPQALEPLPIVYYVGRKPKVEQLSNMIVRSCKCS
Series [17] addresses Plasmin (UniProt P00747+P00747). The settings on record: 5-BrdU replaces T; apparent photocrosslink KD; plateau 50%.

Sequence of IGFBP-3 (P17936 28-291): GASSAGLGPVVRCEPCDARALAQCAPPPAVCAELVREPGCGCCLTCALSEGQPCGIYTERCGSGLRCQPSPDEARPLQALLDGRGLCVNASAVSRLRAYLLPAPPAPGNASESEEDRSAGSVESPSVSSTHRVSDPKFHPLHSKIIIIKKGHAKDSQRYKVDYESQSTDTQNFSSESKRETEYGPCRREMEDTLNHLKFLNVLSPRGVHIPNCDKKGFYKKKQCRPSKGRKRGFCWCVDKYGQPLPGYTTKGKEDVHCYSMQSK
Sequence of CTLA-4 Fc (P16410 36-161): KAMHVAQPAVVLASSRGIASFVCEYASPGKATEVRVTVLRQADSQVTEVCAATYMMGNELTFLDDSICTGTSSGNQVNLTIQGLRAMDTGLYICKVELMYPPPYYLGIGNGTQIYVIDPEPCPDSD
Sequence of Hepatocyte Growth Factor (HGF) (P14210 32-494, chain 1 of 2): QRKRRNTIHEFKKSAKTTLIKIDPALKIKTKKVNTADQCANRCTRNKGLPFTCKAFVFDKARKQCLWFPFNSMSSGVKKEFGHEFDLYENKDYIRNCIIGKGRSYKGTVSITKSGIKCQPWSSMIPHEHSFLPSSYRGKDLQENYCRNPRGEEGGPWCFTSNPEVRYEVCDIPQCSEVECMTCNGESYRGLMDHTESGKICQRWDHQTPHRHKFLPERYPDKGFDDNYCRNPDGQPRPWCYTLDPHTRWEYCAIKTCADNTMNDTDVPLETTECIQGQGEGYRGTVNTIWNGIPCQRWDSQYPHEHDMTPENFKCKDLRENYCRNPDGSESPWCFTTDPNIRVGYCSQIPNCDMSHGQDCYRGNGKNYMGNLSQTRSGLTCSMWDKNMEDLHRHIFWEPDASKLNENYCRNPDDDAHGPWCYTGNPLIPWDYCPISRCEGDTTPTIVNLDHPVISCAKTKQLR
Sequence of Hepatocyte Growth Factor (HGF) (P14210 495-728, chain 2 of 2): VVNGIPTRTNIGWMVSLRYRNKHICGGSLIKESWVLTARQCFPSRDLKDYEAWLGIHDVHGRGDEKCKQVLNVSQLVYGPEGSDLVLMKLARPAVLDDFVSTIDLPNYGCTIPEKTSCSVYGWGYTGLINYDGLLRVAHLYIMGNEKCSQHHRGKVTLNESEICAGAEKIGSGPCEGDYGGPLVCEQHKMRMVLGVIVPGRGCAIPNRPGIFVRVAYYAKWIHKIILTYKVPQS
Sequence of Plasmin (P00747 97-580, chain 1 of 2): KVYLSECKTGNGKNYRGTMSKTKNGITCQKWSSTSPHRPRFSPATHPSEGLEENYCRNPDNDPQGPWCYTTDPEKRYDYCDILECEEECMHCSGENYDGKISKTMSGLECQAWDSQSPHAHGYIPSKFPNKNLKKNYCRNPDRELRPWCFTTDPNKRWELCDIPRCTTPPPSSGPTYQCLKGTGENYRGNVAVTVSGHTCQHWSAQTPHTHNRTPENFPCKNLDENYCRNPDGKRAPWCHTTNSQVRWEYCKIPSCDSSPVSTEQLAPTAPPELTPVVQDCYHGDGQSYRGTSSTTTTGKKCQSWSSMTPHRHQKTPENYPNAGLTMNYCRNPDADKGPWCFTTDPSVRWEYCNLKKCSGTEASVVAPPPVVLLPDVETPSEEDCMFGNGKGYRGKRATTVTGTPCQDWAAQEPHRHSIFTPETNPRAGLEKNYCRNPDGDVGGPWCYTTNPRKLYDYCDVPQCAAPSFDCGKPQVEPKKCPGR
Sequence of Plasmin (P00747 581-810, chain 2 of 2): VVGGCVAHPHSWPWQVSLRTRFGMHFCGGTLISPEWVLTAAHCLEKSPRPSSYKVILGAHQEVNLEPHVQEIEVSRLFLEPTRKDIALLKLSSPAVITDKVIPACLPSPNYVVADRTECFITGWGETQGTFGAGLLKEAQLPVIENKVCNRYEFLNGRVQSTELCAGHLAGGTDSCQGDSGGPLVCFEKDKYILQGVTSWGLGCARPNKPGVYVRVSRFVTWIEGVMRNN

For “ATATATATGGGAGGACGATGCGGGACGACTAGCCTAGTGCCCTTACGATCACCCAGACGACGAGCGGGAAAAAAAA [HGF pool 107 clone 23]”, in series [1], the Kd worked out at 0.53 nM. As to “ATATATATGGGAGGACGATGCGGGACGCTAATACTTCTGGAGTGGAACGGTTTCAGACGACGAGCGGGAAAAAAAA [CTLA-4 Fc pool 101 clone 60]”, the Kd in series [2] was determined as 8 nM. In the case of “ATATATATGGGAGGACGATGCGGCACAATGAAGTCACTCTTGACGCTTGTATTCAGACGACGAGCGGGAAAAAAAA [Endostatin pool 92 clone 4]”, in series [3], the Kd amounted to 2.7 nM. “ATATATATGGGAGGACGATGCGGGACGCTAGTACCCTGGCTGGCTTGGTTGGGCAGACGACGAGCGGGAAAAAAAA [Kininogen pool 046 clone 31]”: the Kd in series [4] is 7 nM. As for “ATATATATGGGAGGACGATGCGGCAACCCACCACTCTATCTTTCCCATAACTGCAGACGACGAGCGGGAAAAAAAA [hNE pool 2 clone 43]”, the Kd in series [5] (apparent photocrosslink KD, plateau 27%, rate 0.14) worked out at 61 nM. “ATATATATGGGAGGACGATGCGGGCCAATCTGTCTTCTTTCCATCCTTATGATCAGACGACGAGCGGGAAAAAAAA [hNE pool 2 clone 73]”: in series [5] (apparent photocrosslink KD, plateau 32%, rate 0.28), the Kd is 29 nM. Consider “ATATATATGGGAGGACGATGCGGGCAGTAGGTTGGGTAGGGTGGTCTGCTCAGACGACGAGCGGGAAAAAAAA [Thrombin pool 5 clone 4]”, for which the Kd in series [6] (plateau 25%, rate 0.4) was determined as 0.03 nM. Consider “ATATATATGGGAGGACGATGCGGGCTGAAAGGAAACGGACGATTGAGCTTCCCCTTACCTCTCCAGACGACGAGCGGGAAAAAAAA [IL-7 pool 042 clone 5]”, for which the Kd in series [7] turned out to be 11 nM. For the sequence “ATATATATGGGAGGACGATGCGGGCAAAGTGTTATTTCTTGATCTGTTTCACCCAGACGACGAGCGGGAAAAAAAA [IGFBP-3 pool 112 clone 65]”, in series [8], the Kd was 6 nM. On to “ATATATATGGGAGGACGATGCGGCTGCGTGACAGTTATACTGTTATTGGTCTTCAGACGACGAGCGGGAAAAAAAA [Factor XII pool 89 clone 51]”, for which the Kd in series [9] was found to be 53 nM. Consider “ATATATATGGGAGGACGATGCGGCCGGTTCACGTGCACCATCCGTGTGCTAGACAGACGACGAGCGGGAAAAAAAA [L-Selectin pool 048 clone 21]”, for which the Kd in series [10] worked out at 7 nM. As to “ATATATATGGGAGGACGATGCGGGAGGAGCTGATGGGTGGTGAGGTTGGCCAGACGACGAGCGGGAAAAAAAA [Thrombin pool 5 clone 51]”, the Kd in series [6] (plateau 6%, rate 0.4) came out at 0.04 nM. In the case of “ATATATATGGGAGGACGATGCGGGCGTCTGGGATTTGGACTTCTTCGCTAGCTCAGACGACGAGCGGGAAAAAAAA [Factor IX pool 87 clone 50]”, the Kd in series [11] was 6.2 nM. On to “ATATATATGGGAGGACGATGCGGGCCGACTCTGAGGAAAAGGTTTTATGTATGGCTACCCCTGCAGACGACGAGCGGGAAAAAAAA [Serum Amyloid P pool 051 clone 50]”, for which, in series [12], the Kd came out at 0.54 nM. “ATATATATGGGAGGACGATGCGGCCTCATAAAGTTACATCGGCAATTCTTCTCCAGACGACGAGCGGGAAAAAAAA [Factor H pool 94 clone 12]”: the Kd in series [13] is 14 nM. With “ATATATATGGGAGGACGATGCGGGCAGGACGGACAGCAAGGGGTGAGCACGAGCAGACGACGAGCGGGAAAAAAAA [Thrombin pool 5 clone 75]”, in series [6] (plateau 62%), the Kd came out at 110 nM. As to “ATATATATGGGAGGACGATGCGGGCACACCCAACCTTGCTTCTTCAATCTAATCTCCACTTTGCAGACGACGAGCGGGAAAAAAAA [Tpo pool 059 clone 34]”, in series [14], the Kd turned out to be 64 nM. As to “ATATATATGGGAGGACGATGCGGCTACTCCTCCTTAACCCGGGTCTTGTGGCCCAGACGACGAGCGGGAAAAAAAA [Collagen pool 100 clone 36]”, the Kd in series [15] amounted to 0.75 nM.

Consider “ATATATATGGGAGGACGATGCGGGCAGCAACCTACCTTACCTTCCCCTAGCCTACCTTATCCCCAGACGACGAGCGGGAAAAAAAA [TGF-beta1 pool 015 clone 82]”, for which the Kd in series [16] (plateau 100%, rate 0.54) turned out to be 7.1 nM.

As to “ATATATATGGGAGGACGATGCGGGCACATCACTCTATCATTTGCTACGGTACCGGAGTGAGTCCAGACGACGAGCGGGAAAAAAAA [hNE pool 2 clone 18]”, the Kd in series [5] (apparent KD from photocrosslinking 308 nm, plateau 37%, rate 0.72 J-1 cm2) came to 21 nM. As for “ATATATATGGGAGGACGATGCGGGACCATCCAATACCTTCCGTAACACTTTCCTTCTTCCTTCCAGACGACGAGCGGGAAAAAAAA [TGF-beta1 pool 015 clone 81]”, in [16] (plateau 80%, rate 0.58), the Kd amounted to 7.2 nM.

As to “ATATATATGGGAGGACGATGCGGCAACCCTGACACCACGTTGTTTCTCCTTTTGGGGTAACCGCAGACGACGAGCGGGAAAAAAAA [Plasmin pool 050 clone 25]”, the Kd in series [17] is 78 nM. Turning to “ATATATATGGGAGGACGATGCGGGCACCTTTCTTACATCTTGGCTTCATTCTTGCACCATTGGCAGACGACGAGCGGGAAAAAAAA [TGF-beta1 pool 015 clone 83]”, the Kd in series [16] (plateau 80%, rate 0.82) was determined as 4.3 nM. For “ATATATATGGGAGGACGATGCGGGCGGTTGGCGTGGTTGGAAATGTCCCGTCAGACGACGAGCGGGAAAAAAAA [Thrombin pool 5 clone 77]”, the Kd in series [6] (plateau 9%, rate 0.64, Table 7 sequence differs from listing (GGTTGCTGTGG vs ggttggcgtgg)) was found to be 0.05 nM. For “ATATATATGGGAGGACGATGCGGGCACAACCTTACCACCCTAGCCTACCCCTAACCTCCTGTCCAGACGACGAGCGGGAAAAAAAA [TGF-beta1 pool 015 clone 74]”, the Kd in [16] (plateau 79%, rate 0.34) came to 4.9 nM.
